Assay [1] deals with T1, cynomolgus monkey SIRPγ on CHO cells (cynomolgus monkey, UniProt Q9P1W8 29-386 (human entry)).
T1 construct: also called Cyno SIRPγ CHO
T1 chain: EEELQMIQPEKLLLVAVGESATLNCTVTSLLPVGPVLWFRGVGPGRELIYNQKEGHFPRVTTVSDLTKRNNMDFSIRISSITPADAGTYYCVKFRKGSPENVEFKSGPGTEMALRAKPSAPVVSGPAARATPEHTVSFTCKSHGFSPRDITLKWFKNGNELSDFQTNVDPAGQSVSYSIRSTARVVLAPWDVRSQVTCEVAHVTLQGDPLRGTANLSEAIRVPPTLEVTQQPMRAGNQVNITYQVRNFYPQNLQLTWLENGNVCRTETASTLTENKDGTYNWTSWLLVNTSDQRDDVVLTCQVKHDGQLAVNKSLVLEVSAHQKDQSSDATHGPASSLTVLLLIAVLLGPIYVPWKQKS
Nature of the assay: flow cytometry, myc-scFv PPE. The procedure:
(§1) Selected antibodies were tested for binding to stably transfected human SIRPγ, SIRPαV1, or SIRPβ1 (co-transfected with DAP12) Chinese hamster ovary (CHO) cells via flow cytometry. A titration of select antibodies was added to the cells and detected using a fluorescently labelled secondary anti-rat IgG antibody or anti-human IgG antibody. Graphs depict the median fluorescence intensity (MFI) at each concentration. FIGS. 5A and 5G show the binding curves of select antibodies to human SIRPγ, cynomolgus monkey SIRPγ, human SIRPα, cynomolgus monkey SIRPα, human SIRPβ1, or cynomolgus monkey SIRPβl-expressing CHO cells detected using an anti-rat IgG antibody. FIGS. 5B-5F and 5H-5L show the binding curves of select antibodies to human SIRPγ, cynomolgus monkey SIRPγ, human SIRPα, cynomolgus monkey SIRPα, human SIRPβ1, or cynomolgus monkey SIRPβ1-expressing CHO cells detected using an anti-human IgG antibody. […] For select antibodies, each myc-tagged SIRPγ scFv antibody as crude PPE was incubated with each of the SIRP-expressing cell lines stated above along with the parental CHO-K1 cell line. […] Fold change value <2.0 is considered a non-binder.

The target in assay [2] is T2, human SIRPγ on stably transfected CHO cells (human, UniProt Q9P1W8 29-387).
T2 construct: also called Human SIRPγ CHO
Nature of the assay: flow cytometry, myc-scFv PPE. The procedure: as §1
(In general: In flow cytometry, cells or beads pass a laser one at a time.)

Assay [3] deals with T3, human SIRPβ1 on CHO cells (co-transfected with DAP12) (human, UniProt O00241 30-398).
T3 construct: whole, on cells; co-transfected with DAP12; also called Human SIRPβ1 CHO
Nature of the assay: flow cytometry.

Assay [4] has as its target T4, cynomolgus monkey SIRPα on CHO cells (cynomolgus monkey, UniProt A0A2K5VYQ9 31-507).
T4 construct: whole, on cells; also called Cyno SIRPα CHO
T4 sequence: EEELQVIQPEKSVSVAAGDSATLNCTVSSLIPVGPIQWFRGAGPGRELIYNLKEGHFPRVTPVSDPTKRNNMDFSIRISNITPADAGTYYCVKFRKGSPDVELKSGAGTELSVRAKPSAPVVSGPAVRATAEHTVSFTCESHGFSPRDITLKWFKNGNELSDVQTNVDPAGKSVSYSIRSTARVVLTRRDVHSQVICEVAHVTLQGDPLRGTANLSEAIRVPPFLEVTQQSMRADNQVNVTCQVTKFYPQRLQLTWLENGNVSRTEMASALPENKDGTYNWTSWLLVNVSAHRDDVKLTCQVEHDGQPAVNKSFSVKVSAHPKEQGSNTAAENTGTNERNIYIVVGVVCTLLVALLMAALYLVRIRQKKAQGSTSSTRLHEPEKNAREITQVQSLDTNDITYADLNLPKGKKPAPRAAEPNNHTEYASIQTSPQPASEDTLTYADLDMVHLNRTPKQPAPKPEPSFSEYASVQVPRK
Nature of the assay: flow cytometry.

The target of assay [5] is T5, human SIRPγ-His monomer protein (human, UniProt Q9P1W8 29-360).
T5 construct: also called hSIRPγ
Put plainly: BLI Octet, V5-scFv PPE captured, SIRP-His 500 nM. On the technique in general: BLI is a label-free optical method that tracks binding on a fibre tip over time.

Where a chain is given by its changes, count along the chain named. Some results are limits rather than exact numbers.

T5 sequence (Q9P1W8 29-360 limits assumed): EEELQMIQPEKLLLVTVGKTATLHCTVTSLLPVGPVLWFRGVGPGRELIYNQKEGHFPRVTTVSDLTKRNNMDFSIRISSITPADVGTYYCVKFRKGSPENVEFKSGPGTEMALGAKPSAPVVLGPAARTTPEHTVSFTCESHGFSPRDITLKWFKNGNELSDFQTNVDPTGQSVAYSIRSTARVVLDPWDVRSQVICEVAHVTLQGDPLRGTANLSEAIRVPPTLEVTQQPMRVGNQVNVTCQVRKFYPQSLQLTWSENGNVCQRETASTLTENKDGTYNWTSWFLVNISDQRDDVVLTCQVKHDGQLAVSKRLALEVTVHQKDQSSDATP
T3 sequence (O00241 30-398): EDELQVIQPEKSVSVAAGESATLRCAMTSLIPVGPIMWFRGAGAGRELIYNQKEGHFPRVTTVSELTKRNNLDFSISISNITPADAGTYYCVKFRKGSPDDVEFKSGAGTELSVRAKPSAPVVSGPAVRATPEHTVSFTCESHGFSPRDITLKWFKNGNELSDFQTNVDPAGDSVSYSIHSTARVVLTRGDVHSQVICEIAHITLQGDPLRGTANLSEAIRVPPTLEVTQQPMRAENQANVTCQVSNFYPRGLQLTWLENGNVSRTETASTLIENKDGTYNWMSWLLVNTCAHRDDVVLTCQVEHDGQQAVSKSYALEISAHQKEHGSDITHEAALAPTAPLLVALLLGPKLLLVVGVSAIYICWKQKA
T2 sequence (Q9P1W8 29-387 limits assumed): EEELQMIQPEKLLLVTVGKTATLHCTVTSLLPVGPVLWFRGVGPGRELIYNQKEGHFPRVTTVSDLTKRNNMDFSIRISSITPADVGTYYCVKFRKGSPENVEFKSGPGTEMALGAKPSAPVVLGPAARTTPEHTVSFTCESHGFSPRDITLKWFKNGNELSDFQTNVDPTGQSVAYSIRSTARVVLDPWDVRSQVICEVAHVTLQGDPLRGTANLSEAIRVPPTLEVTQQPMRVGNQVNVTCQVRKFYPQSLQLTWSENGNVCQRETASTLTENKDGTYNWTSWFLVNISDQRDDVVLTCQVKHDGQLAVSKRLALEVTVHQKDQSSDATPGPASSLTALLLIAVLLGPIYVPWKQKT

B1: Antibody 45 (scFv, V domains shown)
VH: QVQLVQSGAEVKKPGASVKVSCKASGYTFTSYGISWVRQAPGQGLEWMGWISAYNGNTNYAQKFQGRVTMTRDTSTSTVYMELSSLRSEDTAVYYCARGTYYDYIWGSYRYSWFDYWGQGTLVTVSS
VL: not shown
notes: scFv in crude PPE, V5/myc-tagged
In the case of B1, the “MFI fold change over parental CHO” value in assay [1] stood at 18.2 fold; in assay [2], 24.3 fold. Moreover, the binding result in assay [3] and in assay [4] was “no binding (tested: fold change <2.0)” each time. In assay [5], this molecule had a kdis of more than 0.01 s⁻¹.

B2: Antibody 52 (scFv, V domains shown)
VH: QVQLVQSGAEVKKPGASVKVSCKASGYTFTSYDINWVRQAPGQGLEWMGWISGYNGNTNYAQKFQGRVTMTRDTSTSTVYMELSSLRSEDTAVYYCARSFDWLLLLDYWGQGTLVTVSS
VL: DIQMTQSPSSLSASVGDRVTITCRASQSISSWLAWYQQKPGKAPKLLIYDATTLESGVPSRFSGSGSGTDFTLTISSLQPEDFATYYCQQYDSYPWTFGQGTKLEIK
notes: as for B1
Turning to B2, the “MFI fold change over parental CHO” value in assay [1] worked out at 16.3 fold; in assay [2], 14.7 fold. Further, the binding result in assay [3] and in assay [4] was “no binding (tested: fold change <2.0)” each time. In assay [5], the kdis is more than 0.01 s⁻¹.

B3: Antibody 38 (scFv, V domains shown)
VH: QVQLVQSGAEVKKPGASVKVSCKASGGTFSSYDINWVRQAPGQGLEWMGWMNPNSGNTGYAQKFQGRVTMTRDTSTSTVYMELSSLRSEDTAVYYCARDLTLYCSSTSCLDAFDYWGQGTLVTVSS
VL: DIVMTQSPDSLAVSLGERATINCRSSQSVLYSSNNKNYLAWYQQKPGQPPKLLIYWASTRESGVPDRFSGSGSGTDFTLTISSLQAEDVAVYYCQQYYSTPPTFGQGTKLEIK
notes: as for B1
In the case of B3, the “MFI fold change over parental CHO” value was 16.7 fold in assay [1] and 14.8 fold in assay [2]. The binding result in assay [3] and in assay [4] was “no binding (tested: fold change <2.0)” in each case. The molecule further gave a kdis in assay [5] of 0.001 to 0.01 s⁻¹.

B4: Antibody 34 (scFv, V domains shown)
VH: QVQLVQSGAEVKKPGASVKVSCKASGYTFSNYYMHWVRQAPGQGLEWMGWMNPNSGNTGYAQKFQGRVTMTRDTSTSTVYMELSSLRSEDTAVYYCARASMYSSSGFDYWGQGTLVTVSS
VL: DIVMTQSPLSLPVTPGEPASISCRSSQSLLHSNGYNYLDWYLQKPGQSPQLLIYLASTRAPGVPDRFSGSGSGTDFTLKISRVEAEDVGVYYCMQGSHWPPSFGQGTRLEIK
notes: as for B1
In the case of B4, the “MFI fold change over parental CHO” value turned out to be 12 fold in assay [1] and 18.7 fold in assay [2]. For the same molecule, the binding result in assay [3] and in assay [4] was “no binding (tested: fold change <2.0)” throughout. In addition, the kdis in assay [5] fell in the range of 0.001 to 0.01 s⁻¹.

B5: Antibody 48 (scFv, V domains shown)
VH: B4 VH with S30T, N31S, A99D, S100Q, S105Y, F107M, Y109V, L115T
VL: DIQMTQSPSSLSASVGDRVTITCRASESITNWLAWYQQKPGKAPKLLIYKASSLESGVPSRFSGSGSGTDFTLTISSLQPEDFATYYCQQSYGTPYTFGQGTKVEIK
notes: as for B1
With B5, the “MFI fold change over parental CHO” value came out at 9.25 fold in assay [1] and 12.1 fold in assay [2]. For the same molecule, the binding result in assay [3] and in assay [4] was “no binding (tested: fold change <2.0)” in each case. The molecule also returned a kdis in assay [5] of 0.001 to 0.01 s⁻¹.

B6: Antibody 39 (scFv, V domains shown)
VH: QVQLVQSGAEVKKPGASVKVSCKASGGTFSNYGFSWVRQAPGQGLEWMGWMSPSSGNTGYAQKFQGRVTMTRDTSTSTVYMELSSLRSEDTAVYYCARERSGSYFDYWGQGTLVTVSS
VL: EIVMTQSPATLSVSPGERATLSCRASQSVSSYLAWYQQKPGQAPRLLIYGTSTRATGIPARFSGSGSGTEFTLTISSLQSEDFAVYYCQQYGSLPFTFGQGTRLEIK
notes: as for B1
For B6, the figures for the “MFI fold change over parental CHO” value in assay [1] and in assay [2] were 39.5 fold and 16.4 fold, respectively. The binding result in assay [3] and in assay [4] was “no binding (tested: fold change <2.0)” throughout. The molecule further had a kdis in assay [5] of 0.001 to 0.01 s⁻¹.

B7: Antibody 53 (scFv, V domains shown)
VH: QVQLVQSGAEVKKPGASVKVSCKASGHTFNNNYIHWVRQAPGQGLEWMGIINPSGGSTSYAQKFQGRVTMTRDTSTSTVYMELSSLRSEDTAVYYCARQIQDYGYYYYGMDVWGQGTTVTVSS
VL: B6 VL with S31K, G50A, T51I, T53A, T56A, G92Y, L94S, F96P, R103K, L104V
notes: as for B1
Turning to B7, the “MFI fold change over parental CHO” value was determined as 6.94 fold in assay [1] and 5.97 fold in assay [2]. The binding result in assay [3] and in assay [4] was “no binding (tested: fold change <2.0)” throughout. The molecule also returned a kdis in assay [5] of more than 0.01 s⁻¹.

B8: Antibody 44 (scFv, V domains shown)
VH: QVQLVQSGAEVKKPGSSVKVSCKASGGTFSKIAVSWVRQAPGQGLEWMGLINPNSGGTDYAQKFQGRVTITADESTSTAYMELSSLRSEDTAVYYCAKDFRGGDYYYYGMDVWGQGTTVTVSS
VL: B6 VL with Y32N, T51A, G92N, S93T, L94Y, F96I, R103K, L104V
notes: as for B1
For B8, the “MFI fold change over parental CHO” value was determined as 26.7 fold in assay [1] and 16 fold in assay [2]. The binding result in assay [3] and in assay [4] was “no binding (tested: fold change <2.0)” each time. This molecule also displayed a kdis in assay [5] of more than 0.01 s⁻¹.

B9: Antibody 36 (scFv, V domains shown)
VH: QVQLVQSGAEVKKPGASVKVSCKASGYTFTDNYLHWVRQAPGQGLEWMGIIETSGGSTDYAQKFQGRVTMTRDTSTSTVYMELSSLRSEDTAVYYCARSFGGYSYDDAFDIWGQGTTVTVSS
VL: B5 VL with R24Q, E27Q, S28G, T30S, W32Y, A34N, K50A, E55Q, G93S, T94S
notes: as for B1
B9: the “MFI fold change over parental CHO” value is 37.7 fold in assay [1] and 42.4 fold in assay [2]. Also, the binding result in assay [3] and in assay [4] was “no binding (tested: fold change <2.0)” in each case. In assay [5], this molecule came in with a kdis of less than 0.001 s⁻¹.

B10: Antibody 51 (scFv, V domains shown)
VH: QVQLVQSGAEVKKPGASVKVSCKASGYTFTRYDINWVRQAPGQGLEWMGWMNPNSGNTGYAQKLQGRVTMTRDTSTSTVYMELSSLRSEDTAVYYCARERVGYCSSTSCLHPLDYWGQGTLVTVSS
VL: DIQMTQSPSSLSASVGDRVTITCRASQGIRNDLGWYQQKPGKAPKLLIYSASNLQSGVPSRFSGSGSGTDFTLTISSLQPEDFATYYCQQSYDVPLTFGGGTKVEIK
notes: as for B1
B10: the “MFI fold change over parental CHO” value in assay [1] came to 18.8 fold; in assay [2], 20 fold. Further, the binding result in assay [3] and in assay [4] was “no binding (tested: fold change <2.0)” throughout. In assay [5], this molecule came in with a kdis of 0.001 to 0.01 s⁻¹.
